# Experimental data: ChEMBL document CHEMBL1143118, “6-Acetyl-7,7-dimethyl-5,6,7,8-tetrahydropterin is an activator of nitric oxide synthases” (Bioorg Med Chem Lett, 2008)
# Legend:
# [1] = substrate: CC(=O)C1Nc2c(nc(N)[nH]c2=O)NC1(C)C; experiment: (§1) Activity of tetrahydrobiopterin free nNOS
# [2] = substrate: C[C@H](O)[C@H](O)[C@H]1CNc2nc(N)[nH]c(=O)c2N1; experiment: as §1
protein,measurement,setting,value
"Nitric oxide synthase 1 (Homo sapiens), P29475 (protein) MEDHMFGVQQIQPNVISVRLFKRKVGGLGFLVKERVSKPPVIISDLIRGGAAEQSGLIQAGDIILAVNGRPLVDLSYDSALEVLRGIASETHVVLILRGPEGFTTHLETTFTGDGTPKTIRVTQPLGPPTKAVDLSHQPPAGKEQPLAVDGASGPGNGPQHAYDDGQEAGSLPHANGLAPRPPGQDPAKKATRVSLQGRGENNELLKEIEPVLSLLTSGSRGVKGGAPAKAEMKDMGIQVDRDLDGKSHKPLPLGVENDRVFNDLWGKGNVPVVLNNPYSEKEQPPTSGKQSPTKNGSPSKCPRFLKVKNWETEVVLTDTLHLKSTLETGCTEYICMGSIMHPSQHARRPEDVRTKGQLFPLAKEFIDQYYSSIKRFGSKAHMERLEEVNKEIDTTSTYQLKDTELIYGAKHAWRNASRCVGRIQWSKLQVFDARDCTTAHGMFNYICNHVKYATNKGNLRSAITIFPQRTDGKHDFRVWNSQLIRYAGYKQPDGSTLGDPANVQFTEICIQQGWKPPRGRFDVLPLLLQANGNDPELFQIPPELVLEVPIRHPKFEWFKDLGLKWYGLPAVSNMLLEIGGLEFSACPFSGWYMGTEIGVRDYCDNSRYNILEEVAKKMNLDMRKTSSLWKDQALVEINIAVLYSFQSDKVTIVDHHSATESFIKHMENEYRCRGGCPADWVWIVPPMSGSITPVFHQEMLNYRLTPSFEYQPDPWNTHVWKGTNGTPTKRRAIGFKKLAEAVKFSAKLMGQAMAKRVKATILYATETGKSQAYAKTLCEIFKHAFDAKVMSMEEYDIVHLEHETLVLVVTSTFGNGDPPENGEKFGCALMEMRHPNSVQEERKSYKVRFNSVSSYSDSQKSSGDGPDLRDNFESAGPLANVRFSVFGLGSRAYPHFCAFGHAVDTLLEELGGERILKMREGDELCGQEEAFRTWAKKVFKAACDVFCVGDDVNIEKANNSLISNDRSWKRNKFRLTFVAEAPELTQGLSNVHKKRVSAARLLSRQNLQSPKSSRSTIFVRLHTNGSQELQYQPGDHLGVFPGNHEDLVNALIERLEDAPPVNQMVKVELLEERNTALGVISNWTDELRLPPCTIFQAFKYYLDITTPPTPLQLQQFASLATSEKEKQRLLVLSKGLQEYEEWKWGKNPTIVEVLEEFPSIQMPATLLLTQLSLLQPRYYSISSSPDMYPDEVHLTVAIVSYRTRDGEGPIHHGVCSSWLNRIQADELVPCFVRGAPSFHLPRNPQVPCILVGPGTGIAPFRSFWQQRQFDIQHKGMNPCPMVLVFGCRQSKIDHIYREETLQAKNKGVFRELYTAYSREPDKPKKYVQDILQEQLAESVYRALKEQGGHIYVCGDVTMAADVLKAIQRIMTQQGKLSAEDAGVFISRMRDDNRYHEDIFGVTLRTYEVTNRLRSESIAFIEESKKDTDEVFSS",kcat,[1],0.0878 s⁻¹
same,kcat,[2],0.136 s⁻¹
